Results taken from patent publication US20210253725A1 (BIONTECH, published 2021).

T1: CD27 expressed on the cell surface (HT1080_CD27 cells) (human, UniProt P26842 20-260)
T1 sequence (looked up): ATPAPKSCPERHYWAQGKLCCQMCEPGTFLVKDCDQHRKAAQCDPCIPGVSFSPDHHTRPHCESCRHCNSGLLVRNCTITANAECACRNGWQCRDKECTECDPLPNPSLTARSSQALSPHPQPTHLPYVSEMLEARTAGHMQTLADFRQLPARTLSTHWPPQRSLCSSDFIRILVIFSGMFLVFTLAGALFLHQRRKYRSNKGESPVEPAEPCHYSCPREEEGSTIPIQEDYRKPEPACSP

T2: CD27 protein (His-tagged, Sino Biological Inc. 10039-H08B1) (human, UniProt P26842 20-192)
T2 construct: bought; coated onto ELISA plates; also called human CD27; recombinant protein; not shown: His tag
T2 sequence (looked up): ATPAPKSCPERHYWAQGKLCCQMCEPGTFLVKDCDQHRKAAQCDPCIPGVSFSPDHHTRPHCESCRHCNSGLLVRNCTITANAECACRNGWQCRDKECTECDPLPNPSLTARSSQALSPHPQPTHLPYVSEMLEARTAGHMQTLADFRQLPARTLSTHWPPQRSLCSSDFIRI


Tests used:
[1] = biological target: T1, CD27 expressed on the cell surface …; assay: cell-based or functional assay
[2] = biological target: T2, CD27 protein (His-tagged, Sino …); assay: ELISA on coated His-tagged CD27
[3] = biological target: T1, CD27 expressed on the cell surface …; assay: cellular binding assay, HT1080_CD27 cells
Note: test concentration or dose not given here.

Binder | IL-8, cross-linked by F(ab')2 fragment [abs. corr.] [1] | IL-8 [abs. corr.] [1] | ELISA [abs. corr.] [2] | Cellular binding assay [RFU] [3]
P018.S.01.A.G04 (antibody, V domains shown, V regions on human Ig constant parts; also called AB27_23) VH: QEQLVESGGGLVQPEGSLTLTCTASGVSFSNNYYISWVRQAPGKGLEWIACVYTGDDDYTYYPSWAKGRFTISKTSSTTVTLQMTSLTAADTATYFCAREILYPADTDSFDLWGPGTLVTVSS VL: AFELTQTPSSVEAAVGGTVTIKCQASESISSRLAWYQQKPGQPPKLLIYRASTLASGVPSRFKGSGSGTDFTLTISDLESADAATYYCQAYVGISSGGYIFGGGTEVVVK | 1.15 abs. corr. | 0.273 abs. corr. | 3.77 abs. corr. | 388 RFU
P018.S.07.A.B04 (antibody, V domains shown, V regions on human Ig constant parts; also called AB27_116) VH: QSVEESGGRLVTPGTPLTLTCTVSGFSLSSYDMIWVRQAPGKGLEWIGIIYLTDTTYYANWTKGRFTISKTSTTVDLKISSPTTEDTATYFCARHLDTSSGGFYFNLWGQGTLVTVSS VL: AQVLTQTPSSVSAAVGGTVTINCQASQSVYNSKILAWYQQKPGRPPKLLIYDASTLASGVPSRFKGSGSGTQFTLTISGVQSDDAATYFCQGEFTCTSADCIAFGGGTEVVVK | 1.67 abs. corr. | 0.304 abs. corr. | 3.63 abs. corr. | 382 RFU
P018.S.06.A.B03 (antibody, V domains shown, V regions on human Ig constant parts; also called AB27_99) VH: QSVEESGGRLVTPGTPLTLTCTVSGFSLSSYDMIWVRQAPGKGLEWIGIIYLTDTTYYANWAKGRFTISKTSTTVDLKISSPTTEDTATYFCARHLDTSSGGFYFNLWGQGTLVTVSS VL: AQVLTQTPSSVSAAVGGTVTINCQASQSVYNSKILAWYQQKPGRPPKLLIYDASTLASGVPSRFKGSGSGTQFTLTISGVQSDDAATYFCQGEFTCTSADCIAFGGGTEVVVK | 1.22 abs. corr. | 0.566 abs. corr. | 3.59 abs. corr. | 424 RFU
P018.S.02.A.H05 (antibody, V domains shown, V regions on human Ig constant parts; also called AB27_40) VH: QSLEESGGDLVKPGASLTLTCTASGIDFSSSSMCWVRQAPGKGLEWIACIDTGSSGRTDYASWAKGRFTLSKTSATTVTLQMTSLTAADTATYFCTRYGDYAGYGYDSFDPWGPGTLVTVSS VL: AQVLTQTPSSVSAAVGGTVTINCQASQNINNWCSWYQQKPGQPPKLLIAYASTLASGVSSRFKGSGSGTQFTLTISGVQSDDAATYYCQQTFDCTDVENVFGGGTEVVVK | 1.4 abs. corr. | 0.067 abs. corr. | 3.38 abs. corr. | 252 RFU
P018.S.02.A.F05 (antibody, V domains shown, V regions on human Ig constant parts; also called AB27_35) VH: QEQLVESGGDLVKPEGSLTLTCTASGFSFSSSYYMSWVRQAPGKGLEWIACIDTVDNYTYYASWAKGRFTISKTSSTTVSLQMTSLTAADTATYFCARERIAYNTDYFNLWGPGTLVTVSS VL: AQVLTQTPSPVSAAVGGTVTISCQSSQSLYNYNNLAWYQQKPGQPPKLLIYSASNLASGVPSRFGGSGSGTQFTLTISDLQSDDAATYYCQGYYSGAVYTFGGGTEVVVK | 1.17 abs. corr. | 0.395 abs. corr. | 3.44 abs. corr. | 307 RFU
P018.S.02.A.B05 (antibody, V domains shown, V regions on human Ig constant parts; also called AB27_31) VH: QEQLVESGGGLVQPEGSLTLTCKASGFDFSSSYYMSWVRQAPGKGLEWIACIDTADGYTYYASWAKGRFTISKTSSTTVSLQMTSLTAADTATYFCARERIAYNTDYFNLWGPGTLVTVSS VL: AQVLTQTPSPVSAAVGGTVTISCQSSQSLYNYNNLAWYQQKPGQPPKLLIYSVSNLASGVPSRFGGSGSGTQFTLTISDLQSDDAATYYCQGYYSGAVYTFGGGTEVVVK | 1.76 abs. corr. | 0.201 abs. corr. | 3.48 abs. corr. | 374 RFU
P018.S.04.A.B01 (antibody, V domains shown, V regions on human Ig constant parts; also called AB27_66) VH: QEQLVESGGDLVKPGGTLTLTCTASGFSFSSSYYMSWVRQAPGKGLEWIACIDTADAYTYYASWAKGRFTISKTSSTTVSLQMTSLTAADTATYFCARERIAYNTDYFNLWGPGTLVTVSS VL: AQVLTQTPSPVSAAVGGTVTISCQSSQSLYNYNNLAWYQQKPGQPPKLLIYSASNLASGVPSRFGGSGSGTQFTLTISDLQSDDAATYYCQGYYSGAVYTFGGGTEVVVK | 1.67 abs. corr. | 0.508 abs. corr. | 3.38 abs. corr. | 330 RFU
P018.S.04.A.C02 (antibody, V domains shown, V regions on human Ig constant parts; also called AB27_69) VH: QEQLVESGGDLVKPEGSLTLTCTASGFSFSSSYYMSWVRQAPGKGLEWIACIDTVDNYTYYASWAKGRFTISKTSSTTVSLQMTSLTAADTATYFCARERIAYNTDYFNLWGPGTLVTVSS VL: AQVLTQTPSPVSAAVGGTVTISCQSSQSLYNYNNLAWYQQKPGQPPKLLIYSVSNLASGVPSRFGGGGSGTQFTLTISDLQSADAATYYCQGYYSGAVYTFGGGTEVVVK | 1.53 abs. corr. | 0.235 abs. corr. | 3.37 abs. corr. | 415 RFU
P018.S.09.A.D02 (antibody, V domains shown, V regions on human Ig constant parts; also called AB27_150) VH: QSLEESGGRLVTPGTPLTLTCTASGFSLSKYDMGWFRQAPGKGLEWIGMIGASDRTYYASWVKGRFTISKTSTTVDLRITSPTTEDTATYFCAREYPDARGYYYNLWGPGTPVTVSS VL: ALVMTQTPASVEAAVGGTVTINCQASQSISDLLAWYQQKPGQPPKLLIYDASDLASGVPSRFSGSGSGTEFTLTISGVQSDDAATYYCQQGYSITNVDNVFGGGTEVVVK | 1.75 abs. corr. | 1.01 abs. corr. | 3.37 abs. corr. | 337 RFU
P018.S.01.A.D02 (antibody, V domains shown, V regions on human Ig constant parts; also called AB27_11) VH: QSLEESGGRLVTPGTPLTLTCTASGFSLSKYDMGWFRQAPGKGLEWIGMIGASDSTYYASWVKGRFTISKTSTTVDLRITSPTTEDTATYFCAREYPDARGYYYNLWGPGTPVTVSS VL: ALVMTQTPASVEAAVGGTVTINCQASQSISDLLAWYQQKPGQPPKPLIYDASDLASGVPSRFKGSGSGTQFTLTISGVQSDDAATYYCQQGYSITNVDNVFGGGTEVVVK | 1.67 abs. corr. | 0.675 abs. corr. | 3.26 abs. corr. | 323 RFU
P018.S.08.A.D02 (antibody, V domains shown, V regions on human Ig constant parts; also called AB27_138) VH: QSVEESGGRLVTPGTPLTLTCTVSGFSLSHYHILWVRQAPGEGLKYIGITLNNGRIDYATWAKGRFTISKTSTTVDLEITSPTTEDTATYFCAKYFVSESYDLWGQGTLVTVSS VL: TAVLTQTPSPVSAAVGSTVTINCQASQSVYNDNWLSWYQQKPGQPPKLLIYGASTLASGVPSRFKGSGSGTQFTLTISDVQSGDAATYYCLGGYKDNSDNVFGGGTEVVVK | 1.67 abs. corr. | 0.534 abs. corr. | 3.37 abs. corr. | 407 RFU
P018.S.05.A.D04 (antibody, V domains shown, V regions on human Ig constant parts; also called AB27_87) VH: QSLEESGGDLVKPGASLTLTCTASEFDFNNNAMCWVRQAPGKGLEWIACIYIGNGGTWYASWAKGRFTISKSSSTTVTLQVTSLTAADTATYFCARGENIAYFILWGPGTLVTVSS VL: DIVMTQTPASVSAAVGGTVTIKCQASQSINSWLSWYQQKPGQPPKLLIYKASTLASGVPSRFKGSGSGTEFTLTISDLESADAATYYCQGYYYYSSSNYASNAFGGGTEVVVK | 1.53 abs. corr. | 0.246 abs. corr. | 3.37 abs. corr. | 317 RFU
P018.S.07.A.H04 (antibody, V domains shown, V regions on human Ig constant parts; also called AB27_132) VH: QSLEESGGRLVTPGTPLTLTCTVSGLSLSSYDMSWVRQAPGKGLEWIGYIWSGGSTDYASWAKGRFTISKTSTTVDLKIISPTTEDTATYFCARGYVEFDLWGPGTLVTVSS VL: DPVLTQTPPSVSAAVGGTVTINCQSSQSLYSNNYLSWYQQKAGQPPKVLIWPASSLASGVPSRFKGSASGTQFTLTISELQSDDAATYYCQGTFYDSGWLSAFGGGTEVVVK | 1.86 abs. corr. | 0.158 abs. corr. | 3.4 abs. corr. | 386 RFU
P018.S.03.A.D02 (antibody, V domains shown, V regions on human Ig constant parts; also called AB27_47) VH: QSVEESGGRLVTPGTPLTLTCTVSGLSLSSYDMSWVRQAPGKGLEWIGYIWSGGTTDYASWAKGRFTISKTSTTVDLKIISPTTEDTATYFCARGYVEFDLWGPGTLVTVSS VL: DPVLTQTPPSVSAAVGGTVTINCQSSQSLYSNNYLSWYQQKPGQPPKVLIWPASSLASGVPSRFKGSGSGTQFTLTISELQSDDAATYYCQGTFYDSGWLSTFGGGTEVVVK | 1.47 abs. corr. | 0.463 abs. corr. | 3.37 abs. corr. | 397 RFU
P018.S.03.A.H04 (antibody, V domains shown, V regions on human Ig constant parts; also called AB27_62) VH: QSLEESGGRLVTPGTPLTLTCTASGFSLSNYSMNWVRQAPGKGLEWIGIINTYGSAYYASWAKGRFTISKTSTTVDLKMTSLTTEDTATYFCARDAGGSTVPWFFDVWGPGTLVTVSS VL: AYDMTQTPASVEVAVGGTVTIKCQASQTISNYLAWYQQKPGQRPKLLIYDASKLASGVPSRFDGSGSGTEYTLTISGVGSADAATYYCQQGYADSNVDNVFGGGTEVVVK | 1.23 abs. corr. | 0.211 abs. corr. | 3.59 abs. corr. | 334 RFU
P018.S.07.A.B03 (antibody, V domains shown, V regions on human Ig constant parts; also called AB27_115) VH: QSVEESGGRLVTPGTPLTLTCTVSGFSLSSYAMGWVRQAPGKGLEWIGDIYGSGSTYYASWAKGRFTFSRTSTTVDLKMTSLTTEDTATYFCARSKGYNYNLWNLWGQGTLVTVSS VL: DIVMTQTPSSVSAAVGGTVTINCQASQNIYTNLAWYQQKPGQRPKLLIYDASDLASGVPSRFSGSGSGTEYTLTISDLESADAATYYCQTYSYSGSSSANPFGGGTEVVVK | 1.34 abs. corr. | 0.612 abs. corr. | 3.37 abs. corr. | 346 RFU
